Experimental data published in the NTF2 design screens of Basanta et al. (2020).

Assay: protease stability score; higher = more stable; yeast display proteolysis, trypsin and chymotrypsin;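 also: relative to predicted unfolded state with 0 unfolded-like and 1 meaning tenfold more protease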

| Sequence | protease stability score |
| --- | --- |
| DEKEEEYHRILREWMHWLLTGDWDKLLNNVDPHAKLTVNGREIHGMHLAVKLLVDTMRELRFHIEVKDTKVFNGVAFVDLRLHIHIGDKEHKNRSEVTLVIIDGRIHTIVIHDR | 1.56 |
| SEEDEDKELVRHLVEKLIKTGDETLMHEMFDPNARLRVNGRDFHGRESIVKAMLEFLRWLGVDHIHFEHIIVRIVDGRIEINVTVRVEQGDKRTELRIHTRATKIDGKWILTSLTLDVR | 1.13 |
| SEEEQKLRNMAKLTFKDLITGDEEHFEKLADPHTRFNVGNYERHGMRLHLEWYLEWLTRIKGLKLRLELHDVRVVDGRAISDTTLDVHIGDKHIHQDIKLLLVIVDGRIKELEIRFV | 1.22 |
| SEEEEILRIALEIFIHLWQTGDEDMLKHYADPEVRVHFDGRDYHGMNDLQFFVHELRKRYPGIRLHIEHVEIEVYNGRVFIIIHQRLDFNGQVITEEVRLIVIKINGRWDIHSVKYHSH | 0.756 |
| SEDEEEFRRWLEEMVRALITGDEDRLKELFDPHAQVHVNGKERHGRDELVKAFRETLEDFGVKHMRVTSSSVQGDYVIIHIEMHVDGKPIQTDIRVIIVNGKVHKFEVQLH | 1.89 |
| SEEEKHTREMSEMLLRTWETGDEEEYEHLADPHVRIDFNGKHYHGREEAVKLLRWLIEELGADHRTIHREEVQGEKVRLFTRVNVNGRDLRLIIRFVVINGRLTIMKIEIHTE | 1.26 |
| DEDERHMRQTLEDYDHAVETGDWKRLRELADPDYKTDIDGVEIHGMELFWEHLRREVEKYKNVKVEFRLKRIRSIGDFMEIDGRLTLKYGDKEIRVRVIIHAIKVDGRWLFHRMIFG | 1.69 |
| SQEERTHRELLRLLLESLTTGDEDTLRHLMDPHMIIRIGDKHFHGWDWIVHLFRKLGADHMEVEIRDEDIIDGRIRHHGSLHIHVDGRTEHIETILFVEKVNGRWVIRSVEFR | 1.64 |
| DEDEEALDRFLEEWRRYFETGNWEMISNLVDPHARLEQGDKRFHGREEVAKYIHHLVRHMRINDFDIEHRDVQGDKIRIHLRLNGEIDGRRTEFEIHMIYIKVNGRWVVKSMVVN | 0.882 |
| DTDQTLFEDYAKMYMKDLLTGDFESIEKYADPRVQVHIGDKEIHGREIFVKYLWEHNEQVDHRQFHFKDVDHFDGKIHVHMEMHIDVNGKLINEKLHVIIWKFNGRWIMKSVHHR | 0.78 |
| DEMDEVMERWAREYISWEKTGDEEKAKKYVDPNVKTHIDFNGRHVENIGMESEFNFFRELGITIHDIKIREIELQGDKVRIKGRIVFQIGDFEIIIERTVHIVVINGQDRHSEFRFE | 0.194 |
| DEEKETAHEIHRILIKAWITGDEDTLNELLDPNVRIDINGVDTHGMEELKRVFEEHKKEIRWKDVRPRHIHVINGQIHSDTDHNGVVNGVTRTRKAHWIIVVIDGKVHSIKFIIH | 1.29 |
| DDIEKDMERFTHVWLEAWRTGDEDLAKELFDPNTRVEQGDKKYHGRTEFVNLLSHIRIRDMRIHDIHYIVIDGKAIIDFDGELTIDVNGRFHRHRVIIHVEVIKINGQWEISQMRIEVR | 1.11 |
| DEEHRHAEEILKDLQKALITGDEHNMMNLLDPHVRVDFDGVEIIGRELWVELFRTLKKELGITRFDIHLHTHDMKIFDGRVTLDTRLHLHYNGRTEERRVIIYVTKVNGRWHIESMEIK | 1.82 |
| SHWEEDARRFNEIFITHFMTGDWHHLERMLDPHTRAHINGVNTVGREEVSRLVTELFEELGAKHHRIHDFRIQGDKVDTHHHLDVNGRNNHFIIHVKKINGKWRVESIEMTVI | 1.22 |
| DEEEHHIKTLLELHWEIWKTGDEDRFRELADPNTKLIVNGREVIGRERVAKVIHDILRHMRFHDFTLERDKIYNGQVDLHGTEYGHINGKNIERTHVFHIVIVNGVLKSIELRIH | 1.01 |
| SEEEEDAERAERLIFEYHRTGDERLFRELVDPNVRLRVGDKEYHGREDFLRIMLELRIDRMHLHEIRVVDGRVHSRTEVDGTWNGRKFLTETESIIIKINGRWVLHSFHFH | 1.69 |
| DKQHEDIRRFMEEFLNAVTTGDEDVLSRLHDPHARFRLHQGEKHDEKHGRESWLKWMSEIRIHHIEIEHIDVQGDYTLMIVHSDGTIDGVRMEWESRIILYVYNGKLKEVEVRIH | 0.691 |
| SEDENLIKHVKELLTHRAHTGDERELERLVDPNVKIIVGDKFQIGRELMLETWHRWLEEAGVDQIRLTLHHERIQGDYIILEVTYDVNGREIELTIIHIKVNGKWRLHSMKVR | 0.529 |
| DEDEEDAQEILKRFVHANETGDWRILEELIDPNARYEQGDKHLVGREEVLRRMIELGIKHTYIHSFSVQGDKLRLDTSIQFENHRVKTHLILNKINGRWVIKSIHIH | 1.91 |
| DEEDRRYEHWFKLFLEIFLTGDFDQWKKLLDPHVRVDVNGQERVGRDQISEAMRRLLEILGVDHIEVEEVHLQGEKVNLNTQENVNGVETHSRIHVIVINGRLRHSKMDIN | 1.29 |
| SEEEEYARKAAEEFIKHVETGNEDKIILLFDPNALYVYNGVELIGWHVFKEHTHRFKNIRRHITHVEIRVINGVVHVHIDGRFHVNGVDVEQEINIVFRKINGRWKIESNEERFR | 1.57 |
| DKEEEHMREMVRLYQHIRLTGNEEVIRNLADPTMRFDLDFEEKRVTAIGREQYLRVTDKLKKDLGLENIEVRVKEMEAFDGVIHINGHERFNGRSYDTHIWLVIVNGRWEFIRIEIR | 0.116 |
| DREEEHTRTLAKELFEIFLTGDFDRFSELADPNTRLRIIINGVEFRDHGMEFWQWWVDEIRIHSYRMRDMRVFNGQAILLSTSDVEFNGRRHETTVEFVLVIVNGRIKSVTIIVR | 1.69 |
| DETTEHVRKLTELLLRSWVTGDEETDEKMADPNVRIIFEGREVHGMHWFSRVVKELRIEHVQIHDERFKVFEGRAEMRVDTHLRGTQGNYHDERKVRVEIHIIKVNGRWHLETIRVSVH | 1.21 |
